This is an account of results in US12329801B2, “Regenerative polypeptides and uses thereof” (JUVENA THERAPEUTICS, INC., priority 2021, dated 2025).

In the assay the test system is DM1 human myoblast. Kind of assay: Myogenic gene expression fold change in DM1 human myoblast. Particulars: 48 h; BMP7 50 ng/mL, Butyrate 100 nM, IGF2 200 ng/mL. It counts as cell-based. The protocol: Myoblasts were cultured 48 h in the presence of factors (BMP7 50 ng/mL, Butyrate 100 nM, IGF2 200 ng/mL).
Myoblasts were cultured 96 h in the presence of factors (IGF2 200 ng/ml). […] Myoblasts were cultured 48 h in the presence of factors (IGF2 200 ng/mL).
IGF2 was tested individually for its ability to promote proliferation and/or fusion of human muscle progenitor cells from an individual with myotonic dystrophy type 1 (hMD)—a muscular dystrophy caused by mutations in the DMPK1 gene. The effect of IGF2 on myogenic activity was assayed in biological triplicate across a range of concentrations centered around expected physiological levels by adding each factor to hMD myoblasts for 72 hours with daily media changes (DMEM +2% horse serum) and a second pulse of factors at the first media change. After 72 or 96 hours, cells were pulsed for 2-5 hours with EdU (30 uM), ethanol fixed, stained with Hoescht 3342, immunostained for proliferation—as measured by the percent of cells staining positive for EdU (% EdU)-, and immunostained for differentiation—as measured by the increase in cellular area staining positive for embryonic myosin heavy chain (% eMyHC) relative to the negative controls, which received media and vehicle only. Wells were imaged on a Keyence BZ-100 at 4×, the images quantified in Cell Profiler, and the statistics were computed in R. Additionally, RNA was extracted from myoblast and select transcript abundances quantified by qPCR.

B1: BMP7: factor BMP7, 50 ng/mL, tested on DM1 human myoblast (protein, UniProt P18075 293-431, looked up)
Bone morphogenetic protein 7: STGSKQRSQNRSKTPKNQEALRMANVAENSSSDQRQACKKHELYVSFRDLGWQDWIIAPEGYAAYYCEGECAFPLNSYMNATNHAIVQTLVHFINPETVPKPCCAPTQLNAISVLYFDDSSNVILKKYRNMVVRACGCH
Take B1: the “MYF5 expression fold change compared to FM (vehicle)” value is 0.709, the “MYOD1 expression fold change compared to FM (vehicle)” value was determined as 0.709 and the “MYOG expression fold change compared to FM (vehicle)” value is recorded as 0.361.
